Assay results taken from patent US7846202B2, “Coated implantable medical device” (Cook Incorporated, priority 1995, dated 2010).

Legend:
[1] = In-vitro flow system perfusion of antibody-loaded stents (antibody remaining on stent); format: physicochemical; settings: 10 ml/min, 1% BSA in PBS, after approximately 10 days perfusion
Protocol: In one example, device 10 is a stainless steel GR II™ stent in which the stainless steel base material 14 of structure 12 is coated with a polymer and, in particular, parylene. This adsorbent polymer layer 16 of parylene is approximately 230,000 Å thick. Bioactive material layer 18 of the antiplatelet GP IIb/IIIa antibody (AZ1) was passively loaded on adsorbent polymer layer 16. The polymer coated stainless steel stents were immersed for approximately 24 hours in a buffered aqueous solution of AZ1 antibody (1 mg/ml, pH=7.2) at 37° C. AZ1 is a monoclonal anti-rabbit platelet glycoprotein (GP) IIb/IIIa antibody.
In another example, c7E3 Fab as bioactive material layer 18 is attached to polymer coating layer 16. Bioactive material c7E3 Fab is a chimeric monoclonal antibody that acts upon the […] integrin on platelets to inhibit their aggregation. This antibody or receptor blocker may be used in humans intravenously to prevent thrombosis during coronary angioplasty. This receptor blocker is also known as ReoPro™ available from Eli Lilly, Indianapolis, Ind. Bioactive material layer 18 of the antiplatelet GP IIb/IIIa antibody (c7E3 Fab) was passively loaded on adsorbent polymer layer 16. […]

[2] = In vitro release rate of bioactive material from beneath porous parylene layer; format: physicochemical; settings: dexamethasone layer over heparin layer, compared with the material alone
Protocol: When the at least one layer 18 of bioactive material contains a relatively soluble material such as heparin, the at least one layer 18 preferably contains a total of from about 0.1 to about 4 mg of bioactive material per cm^2 of the gross surface area of the structure 12. This provides a release rate for the heparin (measured in vitro) which is desirably in the range of 0.1 to 0.5 mg/cm^2 per day, and preferably about 0.25 mg/cm^2 per day, under typical blood flows through vascular stents. It should be noted that the solubility of dexamethasone may be adjusted as desired, with or without the inclusion of heparin, by mixing it with one or more of its relatively more soluble derivatives, such as dexamethasone sodium phosphate.
For example, when the structure 12 of the device 10 is configured as a vascular stent, it is advantageous for the at least one layer 18 to contain relatively soluble heparin, and the second layer 22 to contain relatively less soluble dexamethasone. […] More particularly, when dexamethasone is disposed by itself beneath a porous parylene layer 20 dimensioned as disclosed above, its release rate is negligible; an adequate release rate is obtained only when the thickness of the porous layer 20 is reduced by a factor of ten or more. […]

change of release rate in heparin/dexamethasone two-layer device [2] | Substance | fraction of loaded antibody remaining on the stent [1]
 | c7E3 Fab: chimeric monoclonal antibody that acts upon the […] integrin on platelets to inhibit their aggregation | approximately half
lowered | heparin | 
